Results from patent US20230340064A1 (published 2023).

T1: MAGE-A3 peptide on HLA-A*01:01 (human)
T1 peptide: EVDPIGHLY

T2: titin peptide on HLA-A*01:01 (human)
T2 peptide: ESDPIVAQY


Tests used:
[1] = molecular target: T1, MAGE-A3 peptide on HLA-A*01:01; experiment: multimer staining
Text: CD8 T cells were isolated from PBMCs of a healthy donor and transduced with three different MAGE-A3-reactive TCRs. Transduced CD8⁺ T cells were enriched by FACS using the constant beta 1 region as a marker for transduction. After expansion of these cells, they were stained either with a MAGE-A3EVD-MHC-multimer (right panel) or antibodies against CD8 and Cß1 (left panel) and analyzed by flow cytometry. Populations were gated on single live cells.
Sequences of TCR-α and TCR-β chains of MAGE-A3-reactive T-cell clones were identified by Next Generation Sequencing and after exchanging the constant TCR regions by their minimal-murinized counterparts cloned into the retroviral vector pES.12-6. For the β chain the Cß1 sequence was used. PBMCs of three healthy donors were isolated by ficoll gradient centrifugation. CD8-positive Cß1-negative T-cells were enriched by negative magnetic selection (Miltenyi) and stimulated in non-tissue culture 24-well plates with plate bound antibodies specific for CD3 and CD28. Amphotropic retroviral particles were produced by transfection of HEK293T cells with the respective TCR encoding retroviral plasmid and two expression plasmids. Three days after stimulation, CD8-positive Cß1-negative T cells were transduced and on day ten enriched for transduced CD8⁺ cells by MACS-separation using the Cβ1 constant beta region as a marker for transduction and then expanded by REP. Transgenic T cells were stained either with an HLA-A1-restricted MAGE-A3EVD-MHC-multimer (MAGE-A3, […]; immuneAware) or antibodies against CD8 and the constant β1 region.

[2] = molecular target: T2, titin peptide on HLA-A*01:01; experiment: cytokine release
[3] = molecular target: HLA-A1-restricted MAGE-A3EVD-MHC-multimer (MAGE-A3, …; immuneAware) (human); experiment: flow cytometry, MHC-multimer staining of TCR-transduced CD8+ T cells

Row | binding result [1] | binding result [2] | percent of T cells binding the MAGE-A3EVD-MHC-multimer [3] [%] | Binder
1 | recognises | no recognition |  | TCR1 (TCR, V domains shown) Valpha: KQEVTQIPAALSVPEGENLVLNCSFTDSAIYNLQWFRQDPGKGLTSLLLIQSSQREQTSGRLNASLDKSSGRSTLYIAASQPGDSATYLCAVIEYGNKLVFGAGTILRVKS Vbeta: DAMVIQNPRYQVTQFGKPVTLSCSQTLNHNVMYWYQQKSSQAPKLLFHYYDKDFNNEADTPDNFQSRRPNTSFCFLDIRSPGLGDAAMYLCATSWDRGYEQFFGPGTRLTVL
2 | recognises | no recognition |  | TCR3 (TCR, V domains shown) Valpha: AQKVTQAQTEISVVEKEDVTLDCVYETRDTTYYLFWYKQPPSGELVFLIRRNSFDEQNEISGRYSWNFQKSTSSFNFTITASQVVDSAVYFCALSEALGYSSASKIIFGSGTRLSIRP Vbeta: GAGVSQSPSNKVTEKGKDVELRCDPISGHTALYWYRQSLGQGLEFLIYFQGNSAPDKSGLPSDRFSAERTGGSVSTLTIQRTQQEDSAVYLCASSDPMSGAQETQYFGPGTRLLVL
3 |  |  | 20 | TCR_2 (MAGE-A3-reactive TCR, transgenically expressed on CD8+ T cells) (TCR, V domains shown) V domain 1: KQEVTQIPAALSVPEGENLVLNCSFTDSAIYNLQWFRQDPGKGLTSLLLIQSSQREQTSGRLNASLDKSSGRSTLYIAASQPGDSATYLCAVRWETSGSRLTFGEGTQLTVNP V domain 2: DSGVTQTPKHLITATGQRVTLRCSPRSGDLSVYWYQQSLDQGLQFLIQYYNGEERAKGNILERFSAQQFPDLHSELNLSSLELGDSALYFCASSVGGGYEQYFGPGTRLTVTE
4 | recognises | no recognition |  | TCR2 (TCR, V domains shown) Valpha: KQEVTQIPAALSVPEGENLVLNCSFTDSAIYNLQWFRQDPGKGLTSLLLIQSSQREQTSGRLNASLDKSSGRSTLYIAASQPGDSATYLCAVRWETSGSRLTFGEGTQLTVNP Vbeta: DSGVTQTPKHLITATGQRVTLRCSPRSGDLSVYWYQQSLDQGLQFLIQYYNGEERAKGNILERFSAQQFPDLHSELNLSSLELGDSALYFCASSVGGGYEQYFGPGTRLTVT
